Laboratory results reported in paper doi:10.1101/2024.11.25.625199.

Target: cross-linked CA(M66I) hexamer, CA(A14C/E45C/W184A/M185A) with M66I (HIV-1)
Assay: crystal structure

“cross-linked CA(M66I) hexamer, CA(A14C/E45C/W184A/M185A) with M66I (natural protein)” was tested, and the stoichiometry N was 6.
